Measured values from publication PMC2759312.

Biological target: gamma complex labeled with AF488 on delta' (gammac-AF488);beta sliding clamp (Escherichia coli;Escherichia coli, UniProt P06710-2;P28630;P28631;P28905;P28632;P0A988 1-431;1-343;1-334;1-147;1-137;1-366, |)
Assay: fluorescence anisotropy

B1: p/t-DNA-RhX (30-nt primer on 60-nt template) (dsDNA)
DNA 1: TTCAGGTCAGAAGGGTTCTATCTCTGTTGGCCAGAATGTCCCTTTTATTACTGGTCGTGT
DNA 2: ACACGACCAGTAATAAAAGGGACATTCTGG
modifications: C6-amino linker at 5' end of 60mer
binding result: binds
